Biological target: Rabenosyn-5 (as printed for the GST pull-down of Figure 7)
Assay: pull-down; GST-effector fusion protein on glutathione-Sepharose beads incubated with clarified lysate of transfected cells for 1 h at 4 °C; lysis buffer 20 mM Hepes pH 7.4, 100 mM NaCl, 5 mM MgCl2, 0.1% NP40, 10% glycerol, 1 mM DTT; washed 3 times with PBS-T (1% Triton X-100); immunoblot with anti-Myc or anti-Rab antibody, bands quantified with LI-COR Odyssey

Question: How did the fold binding to Rabenosyn-5 relative to EEA1 turn out when “Rab22 (from UniProt Q9UL26 1-194) (natural protein)” was run?
Answer: 2 to 3 fold
